Laboratory results taken from patent US20210371526A1.

Molecular target: CD19 on tumor cells (Raji, Raji-Luc, NALM6, Reh) (human) (UniProt P15391)
Experiment: cell-based or functional assay

Chain of CD19 on tumor cells (Raji, Raji-Luc, NALM6, Reh) (human) (P15391 20-556): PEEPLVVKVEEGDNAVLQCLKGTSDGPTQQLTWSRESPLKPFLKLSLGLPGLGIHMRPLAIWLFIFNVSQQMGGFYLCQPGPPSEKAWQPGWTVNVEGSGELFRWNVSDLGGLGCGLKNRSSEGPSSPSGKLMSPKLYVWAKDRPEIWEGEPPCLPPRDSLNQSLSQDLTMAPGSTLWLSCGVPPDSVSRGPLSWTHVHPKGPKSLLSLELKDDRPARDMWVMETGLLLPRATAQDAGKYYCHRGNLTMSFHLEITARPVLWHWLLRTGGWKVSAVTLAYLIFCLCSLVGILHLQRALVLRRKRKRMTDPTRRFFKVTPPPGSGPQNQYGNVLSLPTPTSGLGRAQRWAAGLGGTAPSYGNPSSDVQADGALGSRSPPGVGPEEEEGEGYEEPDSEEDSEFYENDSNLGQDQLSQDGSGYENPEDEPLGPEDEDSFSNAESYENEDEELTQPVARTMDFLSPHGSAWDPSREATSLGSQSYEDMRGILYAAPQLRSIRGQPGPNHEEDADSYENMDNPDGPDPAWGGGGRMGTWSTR

- EC50 of activation of Jurkat T cells with NFAT RE reporter in the presence of Raji target cells: 2.71 nM
Substance: Blincyto (bispecific antibody)
- EC50 of CIK-mediated killing of NALM6 cells: 0.0773 nM
- EC50 of CIK-mediated killing of Raji-LUC cells: 0.000595 nM
- EC50 of CIK-mediated killing of Raji-LUC cells, second row: 0.00565 nM
- EC50 of CIK-mediated killing of Reh cells: 0.0119 nM
- EC50 of PBMC-mediated killing of Raji-LUC cells: 0.00545 nM
- EC50 of PBMC-mediated killing of Raji-LUC cells, second row: 0.0212 nM
- EC50 of PBMC-mediated killing of Raji-LUC cells, third row: 0.0226 nM
